# Experiment: yeast display, Sf9 membrane polyspecificity reagent, FACS + sequencing; frameworks hold sequencing errors
# Summary of the method: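 In a synthetic yeast display library (Saccharomyces cerevisiae BJ5465), nanobody expression was induced with galactose for 36–48 hours. FACS gates were set low and high (top ~1%) using anti-HA fluorescence for expression and streptavidin fluorescence for binding of the Sf9 membrane reagent. Each polyreactivity label is drawn from the gate of origin.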
row,Sequence,polyreactivity (PSR sort gate)
1,QVQLVESGGGLVQAGGILRLSCAASGSTFYYYAMGWYRQAPGKERELVAAISSSGGTTYYADSVKGRLTISRDNAKNTVYLQMNSLKAEVTAVYYCAAQRYPSSLYQRFYYWGQGTQVTVSS,high polyreactivity
2,QVQLVESGGCLLQAGATLRLSCASSGSIFNGKAMGWYRQAPGKERELVAANTWSGGSTYYADSVKGRFTISRDNAKNSVYLQMNSLKPEDTAVYYCNTYTYRGYDYWGQGTQVTVSS,high polyreactivity
3,QVQLVESVGGLVQAGGSLRLSSAASGFTFTRNTMGWYRQAPGKERELVAAITRGGSTNYADSVKGRFTISLDTAKNPVYLQMHSLKPEDTAVYYCAADAPFDSPYNYWGQGTQVTVSS,low polyreactivity
4,QVQLVESGGGLVQAGGSLRLSCAASGYIFKNYAMGWYRQAPGKERELVAAITRRGASTYYADSVKGRFTITRDNAKNTVYLQMNSLKPEDTAVYYCAAYPWPPGEYDYWGQGTQVTVSS,low polyreactivity
5,QVQLVESGGVLVQAGGSLRLSCAASGRTFGWYAMGWYRQAPGKERELVAAITWRGGSTYYADSVKGRFTISRDNAKNTVYLQMNILKPEDTAVYYCAAAAEKRSYYWGQGTQVTVSS,high polyreactivity
6,QVQLVESGGGLVQAGGSRRLSCAAAGIIFYAYAMGWYRQAPGKEREFVARISRGGSTNYADSVKGRFTLSRDNAKNTVYLQMNSLKPEDTAVYYCAAYYAYLRYGGLYEYWGQGTQVTVSS,high polyreactivity
7,QVQLVESGGGLVQAGGSLRLSCAASGRTLRYNVMGWYRHAPGKERELVAAISSGGSTYYADSVKGRFTISRDNAKNTVYLQMNSLKPEDTAVYYCAKRVSNWVTGGGYYYWGQGTQVTVSS,high polyreactivity
8,QVQLVESGGGLVQAGGSLRLSCAASGSTFSFYAMGWYRQAPGKERELVADITSGGSTYYADSVKGRFTISRDNAKNTVYLQMNSLKPEDTAVYYCAKADYGGDYYYQSGGLYYYWGQGTQVTVSS,low polyreactivity
9,QVQLVESGGGLVQAGGSLRLSCAASGSIFRVYAMGWYRQAPGKERELVAAITRGGSTYADSVKGRFTISRDNAKNTVYLQMNSLKPEDTAVYYCAAQRTLYRSGFDSWGQGTQVTVSS,high polyreactivity
10,QVQLVESGGGLVQAGGSLRLSCAASGFTLPLYAMGWYRQAPGKERELVATISSGGTTYYADSVKGRFTISRDNAKNTVYLQMNSLKPEDTAVYYCNTLRQLGRPFYYWGQGTQVTVSS,high polyreactivity
11,QVQLVDSGGGLVQAGGSLRLSCAASGRTLAFNAMGWYRQAPGKERELVAVIRNGTSTNYADSVKGRFTISRDNAKNTVYLQMNSLKPEDTGVYYCNVPYYLPSYLSGYDYWGQGTQVTVSS,low polyreactivity
12,QVQLLESGGGLVQAGGSLRLSCMASGSILGDRMSWYLQPPGKEHELVATIYDGGITYYADSMKGRFTISRDNAKNTVYLQMNSLRPEDTAVYYCGASFEGYRYNVYCGQGTQVTVSS,low polyreactivity
13,QVQLVESGGGLVQAGGSLRLSCAPSGHIFLQNAMGWYRQAPGKERELVAGITYSDTSTYADSVKGRFTISRDNAKNTVYLQMNSLKPEDTAVYYCEYYYWGQGTQVTVSS,low polyreactivity
14,QVLLVESGGGLVQAGGSLRLSCAASGRIFYSNVMGWYIQAPGKERELVAAISGRTGGTYYADSVKGRFTISRDNAKNTVYLQMNSLKPEDTAVYYCAARVIYYYGSGPYDYWGQGTQVTVSS,low polyreactivity
15,QVQLVESGGGLVQAGGSLRLSCAASGRIFRYYAMGWYRQAPGKERELVATIRSGGSTNYADSVKGRFTISRDNAKNTVYLQMNSLKPEDTEVYYCAATGGILSTYDYWGLGTQVTVSS,high polyreactivity
16,QVQLVESGGGLVQAGGSLRLSCAASGRTSGGYAMGWYRQAPGNERELVASITWSGDTTYYADSVTGRFTISRDNAKNTVYLQMNSLKPEDTAVYYCATIPGYVYYWQYKYDYWGQGTQVTVSS,low polyreactivity
17,QVQLVESGGGLVQAGGSLRLSCAASGSIFYVNGMGWYRQAPGKEREFVARITLSGTSTYYADSVKGRFTISRDNAKNTVYLQMNSLKPEDTAVSYCAAPYFTYGQDDDDYWGQGTQVTVSS,low polyreactivity
18,QVQLVESGGGLVQAGVSLRLSCAASGSTLVYYAMGWYRQAPGKERELVAAITRSGDNTYYADSVKGRFTISRDNAKNTVYLQMNSLKPEDTAVYYCAVKKRVYSGDYWGQGTQVTVSS,high polyreactivity
19,QVQLVESGGGLVQAGGSLRLSCAASGRIFEINAMGWYRQAPGKERELVAGISYSGGSTYYADSVKGRFTISRDNAKNTVYLQMNSLKPEDTAVYYCAALFQSYQITYDSWGQGTQVTVSS,low polyreactivity
20,QVQLVESGGGLVQAGGSLRLSCAASGYTFKYYAMAWYRQAPGKERELVAAITRSGGGTYYADSVKGRFTISRDNAKNTVYLQMNSLKPEDTAVYYCKAVLSSHGTDAGSYSYDYWGQGTQVTVSS,high polyreactivity
21,QVQLVESGGGLVQAGGSLRLSCAASGSTFDKYVMGWYRQAPGKERELVAVIDWRDGTTYYADSVKGRFTISRDNAKNTVYLQMNSLKPEDTAVYYCNADNDNYGDVYPYYTAGYGYWGQGTQVTVSS,low polyreactivity

row,Sequence,polyreactivity (PSR sort gate)
1,QVQLVESGGGLVQAGGSLRLSCAASGFTFRYYTMGWYRQAPGKERELVAAINRSGSTNYADSVKGRFTISRDNAKNTVYLQMNSLKPEDTAVYYCAAAYYGSHGRYDYWGQGTQVTVSS,high polyreactivity
2,QDQLVESGGGLVQAGGSLRLSCAASGFTFQDYAMGWYRPAPGKERELVAAISTSDGNTYYADSVKGRFTISRDNAKNTVYLQMNSLKPEDTAVYYCAAQRNYGWVKFYYWGQGTQVTVSS,high polyreactivity
3,QVQLVESGGGLDQAGGSLRLTCAASGSIFRWYAMGWYRQAPGKERELVAAISRGASTNYADSVKGRFTISRDNAKNTVYLKMNSLKPEDTAVYFCAKRTTRLATYDYWGQGTQVTVSS,high polyreactivity
4,QVQLVESGGGLVQAGGSLRLSCAASGGIFYRYAMGWYRQAPGKEREFVASITSSGDRTYYADSVKGRFTISRDNAKNTVYLQMNSLKPEDTAVYYCAAVYTAAWGGRYHYWGQGTQVTVSS,high polyreactivity
5,QVQLVESGGGLVHAGGSLRLSCAASGSTFAYNAMGWYRQAPGKERELVDAIDWSDGITYYADSVKGRFTISRDNAKNTVYLQMNSLKPEDTAVYYCAAEDGYTDSRAYGYDYWGQGTQVTVSL,low polyreactivity
6,QVQLVESGGCLIKEVGSLRLSCAASGNIFVFYGKGWYRQAPGKERELVAAIDSGGSSTYYADSVKGRFTISRDNAKNTVYLKMKSLKPEDTAFDYCSARPYYSWNYDYWGQGTQVTVSS,low polyreactivity
7,QVQLVESGGGLVQAGGRLRLSCAPSGSTFTANDMGWYRQAPVKERELVAAISISGTRTYYADSVKGRFTISRDNAKNTVYLQMNSLKPEDTAVYYGNKATSYFTVRGYDYWGQGTQVTVSS,high polyreactivity
8,PVQLVESGGGLVQAGGSLRLSCAASGRTFRSNCMGWYRQAPAKERDLVATISEGGGSTYYADSVKGRFTISRDHAKNNVYLQMNSLKTEYTAVYYCAADKWYVLHYLDMNYWGQGTQVTVSA,high polyreactivity
9,QVQLVESGGRLVQAGGSLRLSCAASGRTFGYNTMGWYRPAPGKEREVVARITWSGASTYYADSVKGRFTISRDNAKNTVYLQMNSLKPEDTAVYYCNTADTVSWRSPYDYWGQGTQVTVSS,high polyreactivity
10,QVQLVESGGGLVQAGGSLRLSCAASGRNFWFNAMGWYRQAPGKVRELVAAISGGSTNYADSVKGRFTISRDNAKNHVYLQMNSLKPEDTAVYYCAARYLLRYNWGQGTQVTVSS,high polyreactivity
11,QVQLVESGGGLVQAGGSLRLSCAASGSIFVDNAMGWYRQAPGKDRELVAVISWIGSSTYYADSVKGRFTISRDNAKNTDYFQMNSLKPEDTAVYYCAAAPSRTLLRQSKYYYWGQGTQVTVSS,low polyreactivity
12,QVQIVESGGRLVQAGGSLRLSCAASGLTFRRYAMGWYRQAPGKERELVASITYRGGSTYYADSVKARFTISRDNAKNTVYLQINSLKPEDTAVYHCNAKGQRNKRCRGYWGQGSQVTVSS,high polyreactivity
13,QVQLVESGGGLVQAGGSLRLSCAASGRIFPTNAMGWYRQAPGKERELVASITRSGSTYYADSVKGRFTISRDNAKNTVYLQMNSLKPEDTAVYYCAADRSAVQFSAFLEYDYWGQGTQVTVSS,low polyreactivity
14,QVQLVESGGGLVQAGGSLRLSCAASGRTFSSNAMGWYRQAPGKERELVASISFRGGRTYYADSVKGRFTISRDNAKNTVYLQMNSLKPEDTAVYYCVSGTKRTGYGYWGQGTQVTVSS,high polyreactivity
15,QVQLVESGGGLVQAGGSLRLSCAASGRTFRTNAMGWYRQAPGKERELVAAISTGGGITNYADSVKGRFTISRDNAKNTVYLQMNSLKPEDTAVYYCNADIYTWFQIGGYQYDYWGQGTQVTVSS,low polyreactivity
16,HVQLVESGGGFVQAAGSLRLSCAASGSIFAGYAMGWYRQAPGKERELVAAINSSGGSTYYADSVKGRFTISRDNSKNTVYLQMKSLKPEDTAVYDCNRVYKRYYIGGYDYWGQGTQVTVSS,high polyreactivity
17,QVQLVESGGGLVQAGGSLRLSCAASGITFTRNAMGWYRQAPGKERELVAAISRRSGSTYYADSVKGRFTISRDNAKNTVYLQMNSLKPEDTAVYYCAATYSVHFVRYGYWGQGTQVTVSS,high polyreactivity
18,QVQLVESGGGLVQAGGSLRLSCAASGRTFWWYGMGWYRQAPGKDRELVAAITNGGSTNYADSVKGRFTISRDIAKNTVYLQMNSLKPEDTAVYYCAARTRSWYGGFYKYYYWGQGTQVTVSS,high polyreactivity
19,QVQLVESGGRLVQAGGSLRLSCAASGFIFYQYAMGWYRQAPGKERELVAVISRTGSTSYADSVKGRFTISRDNAKNSVYLQLNSLKAEDTAGYYCAKKRALRYYGYDYWGQGTQVTVSS,high polyreactivity
20,QGQLVESGGALFQAGGSLSLSCAASGRNFKRYAMGRYRQAPGKERELVAAIRTSDGLTYYADSVKGRFTISRDNAENTDYLQMNSLKPEETSVYYCADGYPYYHVYGYGYWGQGTQVTVSS,low polyreactivity

# — the nanobody polyreactivity screen of Harvey et al. (2022)
